{
  "source": "paper PMC10986000",
  "key": {"[1]": {"molecular_target": "full-length His-tagged PrsA (amino acid 1 to 320) (S. aureus HG001)", "assay": "cross-linking; E. coli BL21(DE3) cells expressing His-PrsA, D3 or D4 treated with 1% formaldehyde, 5 min, room temperature, 0.1 M sodium phosphate pH 6.8; His-tagged proteins purified on Ni-NTA; SDS-PAGE after 37 °C or 95 °C, Coomassie, immunoblot, LC-MS/MS of bands"}, "[2]": {"molecular_target": "His-PrsA truncated mutant D3 (amino acids 1 to 146 and 251 to 320; PPIase domain deleted) (S. aureus HG001)", "assay": "cross-linking; E. coli BL21(DE3) cells expressing His-PrsA, D3 or D4 treated with 1% formaldehyde, 5 min, room temperature, 0.1 M sodium phosphate pH 6.8; His-tagged proteins purified on Ni-NTA; SDS-PAGE after 37 °C or 95 °C, Coomassie, immunoblot, LC-MS/MS of bands"}, "[3]": {"molecular_target": "protein A (SpA) on the surface of S. aureus HG001 (S. aureus (endogenous in HG001)) (UniProt P02976)", "sequence (P02976 37-485)": "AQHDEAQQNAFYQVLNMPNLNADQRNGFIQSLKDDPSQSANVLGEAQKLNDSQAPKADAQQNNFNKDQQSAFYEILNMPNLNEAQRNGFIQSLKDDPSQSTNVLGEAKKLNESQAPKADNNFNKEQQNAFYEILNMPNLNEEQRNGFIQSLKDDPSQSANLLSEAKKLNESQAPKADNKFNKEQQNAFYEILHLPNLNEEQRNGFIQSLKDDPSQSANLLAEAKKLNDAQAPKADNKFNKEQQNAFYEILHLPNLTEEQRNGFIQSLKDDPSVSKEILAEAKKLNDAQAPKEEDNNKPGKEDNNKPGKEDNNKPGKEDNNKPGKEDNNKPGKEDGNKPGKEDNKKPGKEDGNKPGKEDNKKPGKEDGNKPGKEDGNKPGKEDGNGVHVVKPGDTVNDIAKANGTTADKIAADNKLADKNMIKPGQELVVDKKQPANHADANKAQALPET", "assay": "flow cytometry on cells; about 10^5 CFU S. aureus HG001 (also HG001ΔprsA and HG001ΔprsA(pGHL-PrsA)) in 2% BSA-PBS incubated with mouse IgG at 37 °C for 30 min, then FITC-conjugated anti-mouse IgG at 4 °C for 30 min; percent bound relative to the unstained population"}},
  "data": [
    {"substance": "full-length His-tagged PrsA (amino acid 1 to 320) (natural protein)", "values": [
      {"measurement": "stoichiometry N", "setting": "[1]", "value": 2}
    ]},
    {"substance": "His-PrsA truncated mutant D3 (amino acids 1 to 146 and 251 to 320; PPIase domain deleted) (domain or fragment)", "values": [
      {"measurement": "stoichiometry N", "setting": "[2]", "value": 2}
    ]},
    {"substance": "mouse immunoglobulin IgG", "values": [
      {"measurement": "percent of S. aureus binding to IgG", "setting": "[3]", "value": 41.8, "unit": "%"}
    ]}
  ]
}
